The values that follow come from patent EP2239269B1, “Use of peptides derived from copolymer-1 as molecular weight markers” (YEDA RESEARCH AND DEVELOPMENT CO., LTD., priority 1998, dated 2013).

What all share (type): physicochemical
The nature of data set [1]: Circular dichroism, molar ellipticity (Jobin-Yvon CD spectrophotometer). Further details: unit not given here. An excerpt:
Circular dichroism - Structural similarity between the molecular weight markers and glatiramer acetate is a pre-requisite for an appropriate calibration of a molecular sizing column. Differences in polypeptide structure may result in different hydrodynamic size and consequently in altered retention time in the chromatographic system. The ellipticity, determined by circular dichroism, serves as a measure of the secondary structure of a polypeptide. When the ellipticity of the molecular weight markers and glatiramer acetate is similar, the structures of the two will be similar.
The molar ellipticity of the polypeptides was determined on a Jobin-Yvon CD spectrophotometer. […] Note that while the exact molecular weight for the TV-markers was plotted, the averace-by-number molecular weight for the glatiramer acetate was used in the plot.
A general note: Circular dichroism is widely used to follow secondary structure.

Data set [2] can be described thus: Stability of markers in solution at room temperature, followed by peak retention time on chromatography. The settings on record: for Peak Retention Time, Average: average of the four analyses over 24 hours, room temperature; for Peak Retention Time: solution at room temperature, 0.1 mg/ml. As to the method:
Stability of markers in solution - TV-markers were chromatographed four times over a period of 24 hours. All markers were kept as solutions at room temperature and were analyzed at 8 hour intervals.

Data set [3] is described as follows: Stability of marker solutions stored frozen at -10 to -20°C, followed by retention time at column calibration. On the set-up: unit not given here. Conditions: stored at -10° to -20°C. The procedure:
In addition, solutions of the markers were stored for up to 3 ½ months under various storage conditions (2-8 °C, -10 to -20°C, with/without azide).

The mark [4] stands for this setting: 1st of four analyses at 8 hour intervals over 24 hours.
The mark [5] stands for this setting: 2nd of four analyses at 8 hour intervals.
The mark [6] stands for this setting: 3rd of four analyses at 8 hour intervals.
The mark [7] stands for this setting: 4th of four analyses at 8 hour intervals.
[8] abbreviates: date of calibration 04-step-97, interval 105 days.
The mark [9] stands for this setting: date of calibration 09-Jul-97, interval 48 days.
The mark [10] stands for this setting: date of calibration 22-May-97, interval -.

B1: TV-109: 109-mer sequence-defined polypeptide molecular weight marker, molecular weight = 11727 daltons (peptide)
chain: AKKYAKKAEKAYAKKAKAAKEKKAYAKKEAKAYKAAEAKKKAKAEAKKYAKEAAKAKKEAYKAEAKKYAKAAKAEKKEYAAAEAKKAEAAKAYKAEAAKAAAKEAAYEA
Turning to B1, the “M-ellip. (210nm)” value in data set [1] is -6.818. Besides, in data set [2], the “Peak Retention Time, Average” value was 24.842. For the same molecule, the “Peak Retention Time” value in data set [2] (setting [4]) is listed as 24.783 min; in data set [2] (setting [5]) it was 24.850 min; in data set [2] (setting [6]), 24.883 min; in data set [2] (setting [7]) it was 24.850 min. Also, the figures for the RT in data set [3] (setting [8]), in data set [3] (setting [9]) and in data set [3] (setting [10]) were 23.583, 23.650 and 23.500, respectively.

B2: TV-66: 66-mer sequence-defined polypeptide molecular weight marker of Ala, Glu, Tyr, Lys, molecular weight = 7040 daltons (peptide)
chain: AKKYAKKEKAYAKAKKAEAKAAKKAKAEAKKYAKAAKAEKKEYAAAEAKYKAEAAKAAAKEAAYEA
For the molecule B2, the “M-ellip. (210nm)” value in data set [1] is -3.5172. For the same molecule, the “Peak Retention Time, Average” value in data set [2] is 27.404. The “Peak Retention Time” value in data set [2] (setting [4]) amounted to 27.400 min; in data set [2] (setting [5]), 27.350 min; in data set [2] (setting [6]), 27.433 min; in data set [2] (setting [7]) it was 27.433 min. Moreover, the RT is given as 26.300 in data set [3] (setting [8]), 26.317 in data set [3] (setting [9]) and 26.233 in data set [3] (setting [10]).

B3: TV-86: 86-mer sequence-defined polypeptide molecular weight marker of Ala, Glu, Tyr, Lys, molecular weight = 9220 daltons (peptide)
chain: AKKYAKKEKAYAKKAEKAAKKAEAKAYKAAEAKKKAKAEAKKYAKAAKAEKKEYAAAEAKYKAEAAKKAYKAEAAKAAAKEAAYEA
With B3, the “M-ellip. (210nm)” value in data set [1] is -5.4546. Also, the “Peak Retention Time, Average” value in data set [2] worked out at 26.129. Besides, the “Peak Retention Time” value in data set [2] (setting [4]) is listed as 26.117 min; in data set [2] (setting [5]), 26.100 min; in data set [2] (setting [6]), 26.150 min; in data set [2] (setting [7]), 26.150 min. Further, the results for the RT in data set [3] (setting [8]), in data set [3] (setting [9]) and in data set [3] (setting [10]) were 24.950, 25.017 and 24.883, respectively.

B4: TV-77: 77-mer sequence-defined polypeptide molecular weight marker of Ala, Glu, Tyr, Lys, molecular weight = 8259 daltons (peptide)
chain: AKKYAKKEKAYAKKAEKAAKKAEAKAYKAAEAKKKAKAEAKKYAKAAKAEKKEYAAAEAKYKAEAAKAAAKEAAYEA
For the molecule B4, the “M-ellip. (210nm)” value in data set [1] is -4.8365. In addition, the “Peak Retention Time, Average” value in data set [2] is recorded as 26.746. Moreover, the “Peak Retention Time” value in data set [2] (setting [4]) is given as 26.750 min; in data set [2] (setting [5]), 26.700 min; in data set [2] (setting [6]), 26.750 min; in data set [2] (setting [7]) it was 26.783 min. For the same molecule, the RT was 25.550 in data set [3] (setting [8]), 25.617 in data set [3] (setting [9]) and 25.467 in data set [3] (setting [10]).
